Results from publication PMC10063658, “The RNA-binding protein hnRNP F is required for the germinal center B cell response”.

How the values were obtained:
[1] = tested on: hnRNP H2 (mouse); experiment: pull-down/MS; conditions: Pull-down: 20 mM Tris-HCl pH 7.5, 200 mM NaCl, 6 mM EDTA, 5 mM KF, 5 mM beta-glycerophosphate, 4 h at 4 C, 100 ug nuclear extract; EMSA: BersinBio RNA-EMSA …
[2] = tested on: hnRNP H1 (B cell nuclear extract) (mouse); experiment: pull-down/MS; conditions: Pull-down: 20 mM Tris-HCl pH 7.5, 200 mM NaCl, 6 mM EDTA, 5 mM KF, 5 mM beta-glycerophosphate, 4 h at 4 C, 100 ug nuclear extract; EMSA: BersinBio RNA-EMSA …
[3] = tested on: CELF2 (mouse); experiment: pull-down/MS; conditions: Pull-down: 20 mM Tris-HCl pH 7.5, 200 mM NaCl, 6 mM EDTA, 5 mM KF, 5 mM beta-glycerophosphate, 4 h at 4 C, 100 ug nuclear extract; EMSA: BersinBio RNA-EMSA …
[4] = tested on: hnRNP H3 (mouse); experiment: pull-down/MS; conditions: Pull-down: 20 mM Tris-HCl pH 7.5, 200 mM NaCl, 6 mM EDTA, 5 mM KF, 5 mM beta-glycerophosphate, 4 h at 4 C, 100 ug nuclear extract; EMSA: BersinBio RNA-EMSA …
[5] = biological target: T1, hnRNP F (mouse, UniProt Q9Z2X1 1-415); experiment: EMSA; Pull-down: 20 mM Tris-HCl pH 7.5, 200 mM NaCl, 6 mM EDTA, 5 mM KF, 5 mM beta-glycerophosphate, 4 h at 4 C, 100 ug nuclear extract; EMSA: BersinBio RNA-EMSA kit, 12.5 nM biotin-RNA, 200 ng protein; conditions: protein: recombinant, tags: His
T1 sequence: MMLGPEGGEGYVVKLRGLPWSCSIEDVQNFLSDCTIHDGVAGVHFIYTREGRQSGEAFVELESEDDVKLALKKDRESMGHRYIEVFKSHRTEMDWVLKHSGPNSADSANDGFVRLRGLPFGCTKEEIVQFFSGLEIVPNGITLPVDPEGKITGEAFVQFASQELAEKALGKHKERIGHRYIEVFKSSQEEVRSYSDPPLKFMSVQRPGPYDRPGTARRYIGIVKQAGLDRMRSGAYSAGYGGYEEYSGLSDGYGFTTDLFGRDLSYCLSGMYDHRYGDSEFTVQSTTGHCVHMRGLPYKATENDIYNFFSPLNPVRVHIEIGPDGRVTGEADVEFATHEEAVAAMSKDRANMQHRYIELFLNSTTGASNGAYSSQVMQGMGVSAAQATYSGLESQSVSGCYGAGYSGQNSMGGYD

## Cd40 exon 6 sense RNA
[1]
  binding signal (fold LFQ (sense/antisense)): > 5
[2]
  binding signal (fold LFQ (sense/antisense)): > 5
[3]
  binding signal (fold LFQ (sense/antisense)): > 5
[4]
  binding signal (fold LFQ (sense/antisense)): > 5

B1: I6-WT (ssRNA)
RNA: UCCAGGGGAGAAUGGCCUUGCCAAGUCUUUGGGAAGCAGGGAACU
[5]
  binding result: binds

B2: I7-WT (ssRNA)
RNA: UCAGGAGAGGAAAGGGAGGGAGGGU
[5]; label: 5' biotin
  binding result: binds
